The values below are quoted from earlier work in publication PMC9241160.

For this data set, the target named is Fibrinogen beta chain N-terminal fibrinopeptide (Homo sapiens) (UniProt P02675).

In general, Kd refers to the free concentration of one partner at which half of the binding sites on the other are occupied at equilibrium, for simple one-to-one binding. Take SdrG N2-N3 (from UniProt Q9KI13): the dissociation constant Kd was 400 nM.
